From article PMC9410543, “Nonlytic cellular release of hepatitis A virus requires dual capsid recruitment of the ESCRT-associated Bro1 domain proteins HD-PTP and ALIX” (PLoS Pathogens, 2022)

Target: T1, 6XHis-tagged ALIX Bro1 protein (residues 1–392) (UniProt Q8WUM4 1-392)
T1 construct: Bro1 domain of ALIX, residues 1-392; also called recombinant ALIX Bro1; recombinant Bro1; source: E. coli, recombinant
T1 sequence (looked up): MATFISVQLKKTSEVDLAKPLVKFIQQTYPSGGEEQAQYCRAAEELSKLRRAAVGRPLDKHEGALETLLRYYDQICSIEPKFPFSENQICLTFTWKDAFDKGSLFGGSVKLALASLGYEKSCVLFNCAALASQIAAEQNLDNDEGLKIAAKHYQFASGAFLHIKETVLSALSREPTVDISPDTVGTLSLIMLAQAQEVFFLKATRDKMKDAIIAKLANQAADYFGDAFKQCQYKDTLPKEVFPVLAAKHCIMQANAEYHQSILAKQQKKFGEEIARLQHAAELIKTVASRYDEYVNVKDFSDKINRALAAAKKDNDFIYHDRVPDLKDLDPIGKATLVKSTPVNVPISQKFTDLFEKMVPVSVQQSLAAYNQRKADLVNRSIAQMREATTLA
Assay: pull-down
Settings: both partners purified

B1: peptide representing the C-terminal 20 residues of CHMP4B (peptide, UniProt Q9H444 205-224, looked up)
peptide: KKKEEEDDDMKELENWAGSM
notes: also called CHMP4 peptide; source: synthetic peptide
**Q.** Does B1 bind?
**A.** Result: binds
